These results are taken from PMC7898959, “Identification of an amino-terminus determinant critical for ryanodine receptor/Ca^2+ release channel function” (Cardiovascular Research, 2020).

The series deals with the molecule itself. Description: cross-linking; HEK293 cell homogenate (20 μg) with glutaraldehyde (0.0025% or 260 μmol/L) for 0 min to 1 h under reducing (10 mM DTT) conditions; SDS-PAGE and blot with Ab^cMyc; tetramer formation T = ODT/(ODT + ODM) × 100 by densitometry.

B1: NT^Δβ8–β9 (RyR2 residues 1–906, residues 167–178 removed) (domain or fragment, human, UniProt Q92736 1-906, looked up)
chain: MADGGEGEDEIQFLRTDDEVVLQCTATIHKEQQKLCLAAEGFGNRLCFLESTSNSKNVPPDLSICTFVLEQSLSVRALQEMLANTVEKSEGQVDVEKWKFMMKTAQGGGHRTLLYGHAILLRHSYSGMYLCCLSTSRSSTDKLAFDVGLQEDTTGEACWWTIHPASDDLILVSVSSERYLHLSYGNGSLHVDAAFQQTLWSVAPISSGSEAAQGYLIGGDVLRLLHGHMDECLTVPSGEHGEEQRRTVHYEGGAVSVHARSLWRLETLRVAWSGSHIRWGQPFRLRHVTTGKYLSLMEDKNLLLMDKEKADVKSTAFTFRSSKEKLDVGVRKEVDGMGTSEIKYGDSVCYIQHVDTGLWLTYQSVDVKSVRMGSIQRKAIMHHEGHMDDGISLSRSQHEESRTARVIRSTVFLFNRFIRGLDALSKKAKASTVDLPIESVSLSLQDLIGYFHPPDEHLEHEDKQNRLRALKNRQNLFQEEGMINLVLECIDRLHVYSSAAHFADVAGREAGESWKSILNSLYELLAALIRGNRKNCAQFSGSLDWLISRLERLEASSGILEVLHCVLVESPEALNIIKEGHIKSIISLLDKHGRNHKVLDVLCSLCVCHGVAVRSNQHLICDNLLPGRDLLLQTRLVNHVSSMRPNIFLGVSEGSAQYKKWYYELMVDHTEPFVTAEATHLRVGWASTEGYSPYPGGGEEWGGNGVGDDLFSYGFDGLHLWSGCIARTVSSPNQHLLRTDDVISCCLDLSAPSISFRINGQPVQGMFENFNIDGLFFPVVSFSAGIKVRFLLGGRHGEFKFLPPPGYAPCYEAVLPKEKLKVEHSREYKQERTYTRDLLGPTVSLTQAAFTPIPVDTSQIVLPPHLERIREKLAENIHELWVMNKIELGWQYGP
notes: also called β8–β9 loop deletion; source: HEK293, transiently transfected, in cell homogenate (cross-linking) or CHAPS-solubilized lysate (co-IP); not shown: cMyc, N-terminal, kept
B1: the stoichiometry N (usually a count of units in the complex or per binding partner) worked out at 4.

B2: NT^(E173A + K174A) (RyR2 residues 1–906) (domain or fragment, human, UniProt Q92736 1-906, looked up)
chain: MADGGEGEDEIQFLRTDDEVVLQCTATIHKEQQKLCLAAEGFGNRLCFLESTSNSKNVPPDLSICTFVLEQSLSVRALQEMLANTVEKSEGQVDVEKWKFMMKTAQGGGHRTLLYGHAILLRHSYSGMYLCCLSTSRSSTDKLAFDVGLQEDTTGEACWWTIHPASKQRSEGAAVRVGDDLILVSVSSERYLHLSYGNGSLHVDAAFQQTLWSVAPISSGSEAAQGYLIGGDVLRLLHGHMDECLTVPSGEHGEEQRRTVHYEGGAVSVHARSLWRLETLRVAWSGSHIRWGQPFRLRHVTTGKYLSLMEDKNLLLMDKEKADVKSTAFTFRSSKEKLDVGVRKEVDGMGTSEIKYGDSVCYIQHVDTGLWLTYQSVDVKSVRMGSIQRKAIMHHEGHMDDGISLSRSQHEESRTARVIRSTVFLFNRFIRGLDALSKKAKASTVDLPIESVSLSLQDLIGYFHPPDEHLEHEDKQNRLRALKNRQNLFQEEGMINLVLECIDRLHVYSSAAHFADVAGREAGESWKSILNSLYELLAALIRGNRKNCAQFSGSLDWLISRLERLEASSGILEVLHCVLVESPEALNIIKEGHIKSIISLLDKHGRNHKVLDVLCSLCVCHGVAVRSNQHLICDNLLPGRDLLLQTRLVNHVSSMRPNIFLGVSEGSAQYKKWYYELMVDHTEPFVTAEATHLRVGWASTEGYSPYPGGGEEWGGNGVGDDLFSYGFDGLHLWSGCIARTVSSPNQHLLRTDDVISCCLDLSAPSISFRINGQPVQGMFENFNIDGLFFPVVSFSAGIKVRFLLGGRHGEFKFLPPPGYAPCYEAVLPKEKLKVEHSREYKQERTYTRDLLGPTVSLTQAAFTPIPVDTSQIVLPPHLERIREKLAENIHELWVMNKIELGWQYGP
notes: cardiac ryanodine receptor (RyR2), N-terminus, residues 1-906, double alanine substitution E173 + K174; negative control mutant; source: HEK293, transiently transfected, in cell homogenate; not shown: cMyc, N-terminal, kept
In the case of B2, the “stoichiometry N” value was 4.

B3: NT^(K167A + Q168A) (RyR2 residues 1–906) (domain or fragment, human, UniProt Q92736 1-906, looked up)
chain: MADGGEGEDEIQFLRTDDEVVLQCTATIHKEQQKLCLAAEGFGNRLCFLESTSNSKNVPPDLSICTFVLEQSLSVRALQEMLANTVEKSEGQVDVEKWKFMMKTAQGGGHRTLLYGHAILLRHSYSGMYLCCLSTSRSSTDKLAFDVGLQEDTTGEACWWTIHPASAARSEGEKVRVGDDLILVSVSSERYLHLSYGNGSLHVDAAFQQTLWSVAPISSGSEAAQGYLIGGDVLRLLHGHMDECLTVPSGEHGEEQRRTVHYEGGAVSVHARSLWRLETLRVAWSGSHIRWGQPFRLRHVTTGKYLSLMEDKNLLLMDKEKADVKSTAFTFRSSKEKLDVGVRKEVDGMGTSEIKYGDSVCYIQHVDTGLWLTYQSVDVKSVRMGSIQRKAIMHHEGHMDDGISLSRSQHEESRTARVIRSTVFLFNRFIRGLDALSKKAKASTVDLPIESVSLSLQDLIGYFHPPDEHLEHEDKQNRLRALKNRQNLFQEEGMINLVLECIDRLHVYSSAAHFADVAGREAGESWKSILNSLYELLAALIRGNRKNCAQFSGSLDWLISRLERLEASSGILEVLHCVLVESPEALNIIKEGHIKSIISLLDKHGRNHKVLDVLCSLCVCHGVAVRSNQHLICDNLLPGRDLLLQTRLVNHVSSMRPNIFLGVSEGSAQYKKWYYELMVDHTEPFVTAEATHLRVGWASTEGYSPYPGGGEEWGGNGVGDDLFSYGFDGLHLWSGCIARTVSSPNQHLLRTDDVISCCLDLSAPSISFRINGQPVQGMFENFNIDGLFFPVVSFSAGIKVRFLLGGRHGEFKFLPPPGYAPCYEAVLPKEKLKVEHSREYKQERTYTRDLLGPTVSLTQAAFTPIPVDTSQIVLPPHLERIREKLAENIHELWVMNKIELGWQYGP
notes: cardiac ryanodine receptor (RyR2), N-terminus, residues 1-906, double alanine substitution K167 + Q168; source: HEK293, transiently transfected, in cell homogenate; not shown: cMyc, N-terminal, kept
On to B3, for which the “stoichiometry N” value worked out at 4.

B4: wild-type RyR2 N-terminus (NT, residues 1–906) tagged with the cMyc epitope (domain or fragment, human, UniProt Q92736 1-906, looked up)
chain: MADGGEGEDEIQFLRTDDEVVLQCTATIHKEQQKLCLAAEGFGNRLCFLESTSNSKNVPPDLSICTFVLEQSLSVRALQEMLANTVEKSEGQVDVEKWKFMMKTAQGGGHRTLLYGHAILLRHSYSGMYLCCLSTSRSSTDKLAFDVGLQEDTTGEACWWTIHPASKQRSEGEKVRVGDDLILVSVSSERYLHLSYGNGSLHVDAAFQQTLWSVAPISSGSEAAQGYLIGGDVLRLLHGHMDECLTVPSGEHGEEQRRTVHYEGGAVSVHARSLWRLETLRVAWSGSHIRWGQPFRLRHVTTGKYLSLMEDKNLLLMDKEKADVKSTAFTFRSSKEKLDVGVRKEVDGMGTSEIKYGDSVCYIQHVDTGLWLTYQSVDVKSVRMGSIQRKAIMHHEGHMDDGISLSRSQHEESRTARVIRSTVFLFNRFIRGLDALSKKAKASTVDLPIESVSLSLQDLIGYFHPPDEHLEHEDKQNRLRALKNRQNLFQEEGMINLVLECIDRLHVYSSAAHFADVAGREAGESWKSILNSLYELLAALIRGNRKNCAQFSGSLDWLISRLERLEASSGILEVLHCVLVESPEALNIIKEGHIKSIISLLDKHGRNHKVLDVLCSLCVCHGVAVRSNQHLICDNLLPGRDLLLQTRLVNHVSSMRPNIFLGVSEGSAQYKKWYYELMVDHTEPFVTAEATHLRVGWASTEGYSPYPGGGEEWGGNGVGDDLFSYGFDGLHLWSGCIARTVSSPNQHLLRTDDVISCCLDLSAPSISFRINGQPVQGMFENFNIDGLFFPVVSFSAGIKVRFLLGGRHGEFKFLPPPGYAPCYEAVLPKEKLKVEHSREYKQERTYTRDLLGPTVSLTQAAFTPIPVDTSQIVLPPHLERIREKLAENIHELWVMNKIELGWQYGP
notes: cardiac ryanodine receptor (RyR2), N-terminus, residues 1-906; species is stated for the full-length RyR2 cDNA (human), not for NT itself; also called NT^WT; source: HEK293, transiently transfected, in cell homogenate (cross-linking) or CHAPS-solubilized lysate (co-IP); not shown: cMyc, N-terminal, kept
On to B4, for which the “stoichiometry N” value amounted to 4.

B5: NT^(D179A + D180A) (RyR2 residues 1–906) (domain or fragment, human, UniProt Q92736 1-906, looked up)
chain: MADGGEGEDEIQFLRTDDEVVLQCTATIHKEQQKLCLAAEGFGNRLCFLESTSNSKNVPPDLSICTFVLEQSLSVRALQEMLANTVEKSEGQVDVEKWKFMMKTAQGGGHRTLLYGHAILLRHSYSGMYLCCLSTSRSSTDKLAFDVGLQEDTTGEACWWTIHPASKQRSEGEKVRVGAALILVSVSSERYLHLSYGNGSLHVDAAFQQTLWSVAPISSGSEAAQGYLIGGDVLRLLHGHMDECLTVPSGEHGEEQRRTVHYEGGAVSVHARSLWRLETLRVAWSGSHIRWGQPFRLRHVTTGKYLSLMEDKNLLLMDKEKADVKSTAFTFRSSKEKLDVGVRKEVDGMGTSEIKYGDSVCYIQHVDTGLWLTYQSVDVKSVRMGSIQRKAIMHHEGHMDDGISLSRSQHEESRTARVIRSTVFLFNRFIRGLDALSKKAKASTVDLPIESVSLSLQDLIGYFHPPDEHLEHEDKQNRLRALKNRQNLFQEEGMINLVLECIDRLHVYSSAAHFADVAGREAGESWKSILNSLYELLAALIRGNRKNCAQFSGSLDWLISRLERLEASSGILEVLHCVLVESPEALNIIKEGHIKSIISLLDKHGRNHKVLDVLCSLCVCHGVAVRSNQHLICDNLLPGRDLLLQTRLVNHVSSMRPNIFLGVSEGSAQYKKWYYELMVDHTEPFVTAEATHLRVGWASTEGYSPYPGGGEEWGGNGVGDDLFSYGFDGLHLWSGCIARTVSSPNQHLLRTDDVISCCLDLSAPSISFRINGQPVQGMFENFNIDGLFFPVVSFSAGIKVRFLLGGRHGEFKFLPPPGYAPCYEAVLPKEKLKVEHSREYKQERTYTRDLLGPTVSLTQAAFTPIPVDTSQIVLPPHLERIREKLAENIHELWVMNKIELGWQYGP
notes: cardiac ryanodine receptor (RyR2), N-terminus, residues 1-906, double alanine substitution D179 + D180; also called D179A + D180A mutant; source: HEK293, transiently transfected, in cell homogenate; not shown: cMyc, N-terminal, kept
B5: the “stoichiometry N” value stood at 4.

B6: NT^R176Q (RyR2 residues 1–906 with the arrhythmia-linked R176Q mutation) (domain or fragment, human, UniProt Q92736 1-906, looked up)
chain: MADGGEGEDEIQFLRTDDEVVLQCTATIHKEQQKLCLAAEGFGNRLCFLESTSNSKNVPPDLSICTFVLEQSLSVRALQEMLANTVEKSEGQVDVEKWKFMMKTAQGGGHRTLLYGHAILLRHSYSGMYLCCLSTSRSSTDKLAFDVGLQEDTTGEACWWTIHPASKQRSEGEKVQVGDDLILVSVSSERYLHLSYGNGSLHVDAAFQQTLWSVAPISSGSEAAQGYLIGGDVLRLLHGHMDECLTVPSGEHGEEQRRTVHYEGGAVSVHARSLWRLETLRVAWSGSHIRWGQPFRLRHVTTGKYLSLMEDKNLLLMDKEKADVKSTAFTFRSSKEKLDVGVRKEVDGMGTSEIKYGDSVCYIQHVDTGLWLTYQSVDVKSVRMGSIQRKAIMHHEGHMDDGISLSRSQHEESRTARVIRSTVFLFNRFIRGLDALSKKAKASTVDLPIESVSLSLQDLIGYFHPPDEHLEHEDKQNRLRALKNRQNLFQEEGMINLVLECIDRLHVYSSAAHFADVAGREAGESWKSILNSLYELLAALIRGNRKNCAQFSGSLDWLISRLERLEASSGILEVLHCVLVESPEALNIIKEGHIKSIISLLDKHGRNHKVLDVLCSLCVCHGVAVRSNQHLICDNLLPGRDLLLQTRLVNHVSSMRPNIFLGVSEGSAQYKKWYYELMVDHTEPFVTAEATHLRVGWASTEGYSPYPGGGEEWGGNGVGDDLFSYGFDGLHLWSGCIARTVSSPNQHLLRTDDVISCCLDLSAPSISFRINGQPVQGMFENFNIDGLFFPVVSFSAGIKVRFLLGGRHGEFKFLPPPGYAPCYEAVLPKEKLKVEHSREYKQERTYTRDLLGPTVSLTQAAFTPIPVDTSQIVLPPHLERIREKLAENIHELWVMNKIELGWQYGP
notes: cardiac ryanodine receptor (RyR2), N-terminus, residues 1-906, with the disease-linked (ARVD2, CPVT) mutation R176Q; source: HEK293, transiently transfected, in cell homogenate (cross-linking) or CHAPS-solubilized lysate (co-IP); not shown: cMyc, N-terminal, kept
Take B6: the “stoichiometry N” value stood at 4.
